Results from patent US20240400720A1 (NOVIMMUNE S A, published 2024).
Substitutions are numbered along the chain they refer to.

T1: human CD19 (human, UniProt P15391 20-291, limits assumed)
T1 construct: also called hCD19
T1 sequence (looked up): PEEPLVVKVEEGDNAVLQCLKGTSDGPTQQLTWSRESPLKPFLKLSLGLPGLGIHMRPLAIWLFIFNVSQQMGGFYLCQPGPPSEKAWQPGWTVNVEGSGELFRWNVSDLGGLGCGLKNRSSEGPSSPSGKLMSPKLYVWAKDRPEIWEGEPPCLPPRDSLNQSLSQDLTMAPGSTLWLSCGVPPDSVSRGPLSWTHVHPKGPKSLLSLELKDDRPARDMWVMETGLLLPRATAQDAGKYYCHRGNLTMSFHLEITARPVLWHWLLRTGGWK

T2: human CD19 on Raji cells (human, UniProt P15391 20-556)
T2 construct: whole, on cells; also called native form of hCD19
T2 sequence (looked up): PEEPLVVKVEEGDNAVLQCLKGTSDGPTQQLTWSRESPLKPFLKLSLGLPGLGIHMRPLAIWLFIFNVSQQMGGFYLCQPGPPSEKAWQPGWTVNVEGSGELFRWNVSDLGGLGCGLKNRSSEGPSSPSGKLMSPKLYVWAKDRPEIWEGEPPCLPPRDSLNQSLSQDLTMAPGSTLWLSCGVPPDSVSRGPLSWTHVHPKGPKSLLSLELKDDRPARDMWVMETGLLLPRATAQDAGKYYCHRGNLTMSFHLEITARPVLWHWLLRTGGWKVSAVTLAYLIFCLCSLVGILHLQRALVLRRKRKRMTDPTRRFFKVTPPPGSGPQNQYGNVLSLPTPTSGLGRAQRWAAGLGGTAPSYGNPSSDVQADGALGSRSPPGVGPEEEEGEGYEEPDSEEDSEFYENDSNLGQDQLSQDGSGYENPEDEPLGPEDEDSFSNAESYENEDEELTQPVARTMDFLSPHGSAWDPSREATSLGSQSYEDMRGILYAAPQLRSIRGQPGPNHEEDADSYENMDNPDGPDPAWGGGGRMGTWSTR

B1: 5A3 antibody (antibody, human IgG1, kappa, V domains shown)
VH: not shown
VL: DIQMTQSPSSLSASVGDRVTITCQASQDINKYLNWYQQKPGKAPKLLIYGASRLETGVPSRFSGSGSGTDFTFTISSLQPEDIATYYCQQKHPRGPRTFGQGTKVEIKR
notes: IgG, common heavy chain, kappa light chain
B2: 5A3-M5 antibody (antibody, human IgG1, kappa, V domains shown)
VH: not shown
VL: B1 VL with G95Y
notes: IgG, variant of 5A3 with changed VL
B3: Kc4 antibody (antibody, human IgG1, lambda, V domains shown)
VH: not shown
VL: QSALTQPASVSGSPGQSITISCTGTSSDVGGYNYVSWYQQHPGKAPKLMIYEVSNRPSGVSNRFSGSKSGNTASLTISGLQAEDEADYYCSSYDWWFRPKVFGGGTKLTVLG
notes: IgG, lambda (IGVL2-14)
B4: Ka3 antibody (antibody, human IgG1, kappa, V domains shown)
VH: not shown
VL: DIQMTQSPSSLSASVGDRVTITCRASQSISSYLNWYQQKPGKAPKLLIYAASSLQSGVPSRFSGSGSGTDFTLTISSLQPEDFATYYCQQMHPRAPKTFGQGTKVEIKR
notes: IgG, kappa (IGVK1-39)
B5: C9 antibody (antibody, human IgG1, lambda, V domains shown)
VH: not shown
VL: NFMLTQPHSVSESPGKTVTISCTRSSGSIADKYVQWYQQRPGSSPTIVIYYDNERPSGVPDRFSGSIDSSSNSASLTISGLKTEDEADYYCQTYDESLYGWVFGGGTKLTVLG
notes: anti-CD19, IgG, lambda; also called L7B7_C9
B6: C6 antibody (antibody, human IgG1, lambda, V domains shown)
VH: not shown
VL: B5 VL with A30N, Y51F, E96T
notes: anti-CD19, IgG, lambda; also called L7B7 C6
B7: B11 antibody (antibody, human IgG1, lambda, V domains shown)
VH: not shown
VL: B5 VL with A30E, E96N
notes: anti-CD19, IgG, lambda; also called L7B7_B11
B8: A6 antibody (antibody, human IgG1, lambda, V domains shown)
VH: not shown
VL: B5 VL with A30G
notes: anti-CD19, IgG, lambda; also called L7B7_A6
B9: 5A3M5xC2 (bispecific antibody, human IgG1, kappa, lambda)
common heavy chain: not shown
kappa light chain (5A3-M5, anti-CD47): not shown
lambda light chain (C2, anti-CD19): NFMLTQPHSVSESPGKTVTISCTRSSGSIEDKYVQWYQQRPGSSPTIVIYYDNERPSGVPDRFSGSIDSSSNSASLTISGLKTEDEADYYCQTYDQSLYGWVFGGGTKLTVLGQPKAAPSVTLFPPSSEELQANKATLVCLISDFYPGAVTVAWKADSSPVKAGVETTTPSKQSNNKYAASSYLSLTPEQWKSHRSYSCQVTHEGSTVEKTVAPTECS
notes: also called CD47xCD19 BsAb 5A3M5xC2; bispecific antibody 5A3-M5×C2
B10: Ka3xC2 (bispecific antibody, human IgG1, kappa, lambda)
common heavy chain: not shown
kappa light chain (Ka3, anti-CD47): not shown
lambda light chain (C2, anti-CD19): B9 lambda light chain (C2, anti-CD19)
notes: m75 has the same CD47 arm but no named CD19 arm; also called CD47xCD19 BsAb Ka3xC2; bispecific antibody Ka3×C2
B11: Kc4C3 antibody (antibody, human IgG1, lambda, V domains shown)
VH: not shown
VL: B3 VL with G30R, G31A, Y32A, E52K, V53N, N55T
notes: IgG, lambda
B12: Kc4B1 antibody (antibody, human IgG1, lambda, V domains shown)
VH: not shown
VL: B3 VL with G30R, G31A, Y32N, V53S, N55A
notes: IgG, lambda
B13: Kc4C11 antibody (antibody, human IgG1, lambda, V domains shown)
VH: not shown
VL: B3 VL with G30R, Y32N, V53N, N55K
notes: IgG, lambda
B14: Kc4A4 antibody (antibody, human IgG1, lambda, V domains shown)
VH: not shown
VL: B3 VL with G24R, G30N, G31N, Y32T, E52K, V53T, N55G
notes: IgG, lambda
B15: Kc4G11 antibody (antibody, human IgG1, lambda, V domains shown)
VH: not shown
VL: B3 VL with G31K, Y32A, E52K, V53D, N55D
notes: IgG, lambda
B16: Kc4F4 antibody (antibody, human IgG1, lambda, V domains shown)
VH: not shown
VL: B3 VL with G30R, G31R, Y32A, E52Q, V53D, N55S
notes: IgG, lambda
B17: Kc4E2 antibody (antibody, human IgG1, lambda, V domains shown)
VH: not shown
VL: B3 VL with G30Y, G31Y, Y32N, N33K, V53S, N55K
notes: IgG, lambda; also called KC4-P2E2
B18: Kc4G9 antibody (antibody, human IgG1, lambda, V domains shown)
VH: not shown
VL: B3 VL with G30E, G31R, Y32K, E52K, V53N, N55T
notes: IgG, lambda
B19: Kc4A1 antibody (antibody, human IgG1, lambda, V domains shown)
VH: not shown
VL: B3 VL with G30S, G31A, Y32R, V53S, N55K
notes: IgG, lambda
B20: Kc4E10 antibody (antibody, human IgG1, lambda, V domains shown)
VH: not shown
VL: B3 VL with G30N, G31S, Y32A, E52K, V53S, N55S
notes: IgG, lambda
B21: Ke84G9 antibody (antibody, human IgG1, kappa, V domains shown)
VH: not shown
VL: B4 VL with S31K, M91K, A95S, K97R
notes: IgG
B22: Ke8H6 antibody (antibody, human IgG1, kappa, V domains shown)
VH: not shown
VL: B4 VL with S31K, A50N, S53T, M91R, A95G, K97R
notes: IgG
B23: Ke86G9 antibody (antibody, human IgG1, kappa, V domains shown)
VH: not shown
VL: B4 VL with S31K, A50N, S53N, M91R, A95G, K97T
notes: IgG
B24: Ke81G9 antibody (antibody, human IgG1, kappa, V domains shown)
VH: not shown
VL: B4 VL with S30D, S31K, S53R, M91R, P93K, A95S, K97Q
notes: IgG
B25: Ke81A3 antibody (antibody, human IgG1, kappa, V domains shown)
VH: not shown
VL: B4 VL with R24Q, S28D, S30N, S31R, M91R, K97R
notes: IgG
B26: Ke8A2 antibody (antibody, human IgG1, kappa, V domains shown)
VH: not shown
VL: B4 VL with S30D, S31R, M91K, A95G, K97R
notes: IgG; also called KE8-P2A2; KE8A25
B27: Ke8G11xC2 (bispecific antibody, human IgG1, kappa, lambda)
common heavy chain: not shown
kappa light chain (Ke8G11, anti-CD47): DIQMTQSPSSLSASVGDRVTITCRASQSIGRYLNWYQQKPGKAPKLLIYAASSLQSGVPSRFSGSGSGTDFTLTISSLQPEDFATYYCQQMHPRGPKTFGQGTKVEIKRTVAAPSVFIFPPSDEQLKSGTASVVCLLNNFYPREAKVQWKVDNALQSGNSQESVTEQDSKDSTYSLSSTLTLSKADYEKHKVYACEVTHQGLSSPVTKSFNRGEC
lambda light chain (C2, anti-CD19): B9 lambda light chain (C2, anti-CD19)
notes: also called CD47xCD19 BsAb Ke8G11xC2; bispecific antibody Ke8G11×C2

Biological target: T3, human CD47 (human, UniProt Q08722 19-141, limits assumed)
T3 construct: also called hCD47
Test: surface plasmon resonance

| Kd [nM] | Binder |
| --- | --- |
| ~23.6 | B1 |
| ~2840 | B2 |

Biological target: T3, human CD47
Test: screening of Examples 3 to 6

| binding result | Binder |
| --- | --- |
| binds | B3 |
| binds | B4 |

Biological target: T1, human CD19
Test: second round of affinity maturation (from D11)

| binding result | Binder |
| --- | --- |
| binds | B5 |
| binds | B6 |
| binds | B7 |
| binds | B8 |

Biological target: T4, human CD47 on the cell surface (human, UniProt Q08722 19-323)
T4 construct: whole, on cells; also called huCD47; native CD47
Test: FACS on DS-1 cells (CD19-negative, CD47-positive), human IgG1 format, 0.01-10 µg/ml
Protocol: (§1) The graphs in FIGS. 9A-9C present FACS profiles generated with monovalent and bispecific antibodies binding to CD19-negative B-NHL cells (DS-1) and CD19-positive Burkitt lymphoma cells (Raji). All antibodies were human IgG1 format and were tested at four concentrations as indicated.
(§2) Two types of cells were used, a CD19-positive Burkitt lymphoma cell line Raji (expressing about 65,000 CD47 molecules per cell) and the CD19-negative B-NHL cell line DS-1 (expressing about 150,000 CD47 molecules per cell) as a control.

| binding result | Binder |
| --- | --- |
| binds | B9 |
| binds | B10 |

Biological target: T3, human CD47
Test: CD47/SIRPα binding assay, inhibition of SIRPα binding to CD47; format not stated for this figure

| IC50 (read off the curve) [nM] | Binder |
| --- | --- |
| ~0.08 | B1 |
| ~3 | B2 |

Biological target: T3, human CD47
Test: affinity maturation by phage display on hCD47; positive in hCD47-SIRPα inhibition screen, reformatted as IgG

| binding result | Binder |
| --- | --- |
| binds | B11 |
| binds | B12 |
| binds | B13 |
| binds | B14 |
| binds | B15 |
| binds | B16 |
| binds | B17 |
| binds | B18 |
| binds | B19 |
| binds | B20 |
| binds | B21 |
| binds | B22 |
| binds | B23 |
| binds | B24 |
| binds | B25 |
| binds | B26 |

Biological target: T4, human CD47 on the cell surface
Test: flow cytometry, CHO cells stably transfected with human CD47, antibody 10 µg/ml, Cy-5 anti-human Fc; non-transfected CHO cells as control
Protocol: Non-transfected CHO cells were used as control. In brief, purified CD47 Mabs were incubated with CHO-huCD47 cells at a final concentration of 10 μg/ml for 30 minutes. After two washes, bound CD47 antibodies were detected using a Cy-5 conjugated anti-human Fc secondary antibody (BD biosciences).

| binding result | Binder |
| --- | --- |
| binds | B26 |

Biological target: T4, human CD47 on the cell surface
Test: CD47-SIRPα competitive binding assay: His-tagged soluble human SIRPα (200 ng/ml) on hCD47-transfected CHO cells, antibody 3.3 pM-330 nM; blocked ligand SIRPα

| binding result | Binder |
| --- | --- |
| binds | B11 |
| binds | B12 |
| binds | B13 |
| binds | B14 |
| binds | B15 |
| binds | B3 |
| binds | B16 |
| binds | B17 |
| binds | B18 |
| binds | B19 |
| binds | B20 |
| binds | B21 |
| binds | B22 |
| binds | B23 |
| binds | B24 |
| binds | B25 |
| binds | B4 |

Biological target: T2, human CD19 on Raji cells
Test: FACS on Raji cells (CD19-positive, CD47-positive), human IgG1 format, 0.01-10 µg/ml; both targets are on the cells, the filing ascribes the binding to co-engagement driven mainly by the CD19 arm
Protocol: as §1, §2

| binding result | Binder |
| --- | --- |
| binds | B9 |
| binds | B27 |
| binds | B10 |
